According to patent US20100098693A1 (published 2010):

Assays:
[1] = biological target: T1, human insulin receptor extracellular domain (HIR ECD), lectin affinity purified from transfected CHO cells (human, UniProt P06213 28-956, limits assumed); experiment: ELISA, HIR ECD plated, detection with biotinylated anti-human IgG; printed as ED50 (assay of FIG. 4)
T1 construct: extracellular domain; Secreted ECD purified on a wheat germ agglutinin column
Method: (§1) The affinity of the HIRMAb-PON1 fusion protein for the HIR extracellular domain (ECD) was determined with an ELISA using the lectin affinity purified HIR ECD. Chinese hamster ovary (CHO) cells permanently transfected with the HIR ECD were grown in serum free media, and the HIR ECD was purified with a wheat germ agglutinin affinity column. The HIR ECD (0.2 ug/well) was plated on high binding 96-well plates, and the binding of the HIRMAb, or the HIRMAb-PON1 fusion protein to the HIR ECD was detected with a biotinylated goat anti-human IgG (H+L) antibody (0.3 μg/well), and the avidin-biotinylated peroxidase detection system.

[2] = biological target: T1, human insulin receptor extracellular …; experiment: ELISA, HIR ECD plated; printed as ED50 (second assay, run with the Gln-192 allozyme)
Method: as §1

[3] = biological target: T1, human insulin receptor extracellular …; experiment: ELISA, HIR ECD plated, detection with biotinylated anti-human IgG; printed as ED50 (assay of FIG. 4, Arg-192 allozyme)
Method: as §1

[4] = biological target: T1, human insulin receptor extracellular …; experiment: ELISA, HIR ECD plated; printed as ED50 (second assay, Gln-192 allozyme)
Method: as §1

B1: chimeric HIRMAb (chimeric monoclonal antibody to the human insulin receptor) (antibody, human IgG1, kappa)
heavy: not shown
light: DIQMTQSPSSLSASLGERVSLTCRASQDIGGNLYWLQQGPDGTIKRLIYATSSLDSGVPKRFSGSRSGSDYSLTISSLESEDFVDYYCLQYSSSPWTFGGGTKMEIKRTVAAPSVFIFPPSDEQLKSGTASVVCLLNNFYPREAKVQWKVDNALQSGNSQESVTEQDSKDSTYSLSSTLTLSKADYEKHKVYACEVTHQGLSSPVTKSFNRGEC
notes: Chimeric mouse/human IgG1 kappa; also called engineered HIRMAb
For B1, the EC50 [1] was 0.55 nM and the EC50 [2] was 0.48 nM.

B2: HIRMAb-PON1 fusion protein, Arg-192 allozyme (PON1 fused to the carboxyl terminus of the HIRMAb heavy chain) (antibody)
heavy: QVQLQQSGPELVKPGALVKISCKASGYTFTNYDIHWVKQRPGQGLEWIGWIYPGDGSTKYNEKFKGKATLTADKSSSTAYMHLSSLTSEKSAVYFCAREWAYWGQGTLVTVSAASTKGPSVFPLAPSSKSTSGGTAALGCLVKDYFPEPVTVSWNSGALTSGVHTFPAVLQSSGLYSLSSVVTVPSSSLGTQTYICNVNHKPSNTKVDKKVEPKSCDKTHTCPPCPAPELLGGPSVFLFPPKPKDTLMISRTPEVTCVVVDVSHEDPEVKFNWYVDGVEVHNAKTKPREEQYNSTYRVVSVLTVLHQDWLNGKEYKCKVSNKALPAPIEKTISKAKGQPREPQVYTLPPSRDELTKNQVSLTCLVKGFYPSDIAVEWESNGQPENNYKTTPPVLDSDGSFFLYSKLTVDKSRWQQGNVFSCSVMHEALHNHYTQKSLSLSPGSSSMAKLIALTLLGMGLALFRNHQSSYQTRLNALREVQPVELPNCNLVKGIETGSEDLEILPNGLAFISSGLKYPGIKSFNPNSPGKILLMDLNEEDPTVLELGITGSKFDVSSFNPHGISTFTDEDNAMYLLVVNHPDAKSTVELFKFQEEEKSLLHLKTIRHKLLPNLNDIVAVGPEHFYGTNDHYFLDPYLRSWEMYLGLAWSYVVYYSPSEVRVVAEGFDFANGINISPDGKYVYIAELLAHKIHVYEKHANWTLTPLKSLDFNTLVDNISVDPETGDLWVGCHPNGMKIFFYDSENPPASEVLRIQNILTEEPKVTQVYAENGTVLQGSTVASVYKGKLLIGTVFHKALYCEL
light: DIQMTQSPSSLSASLGERVSLTCRASQDIGGNLYWLQQGPDGTIKRLIYATSSLDSGVPKRFSGSRSGSDYSLTISSLESEDFVDYYCLQYSSSPWTFGGGTKMEIKRTVAAPSVFIFPPSDEQLKSGTASVVCLLNNFYPREAKVQWKVDNALQSGNSQESVTEQDSKDSTYSLSSTLTLSKADYEKHKVYACEVTHQGLSSPVTKSFNRGEC
notes: IgG-enzyme fusion antibody
With B2 the EC50 [3] was 1.1 nM.

B3: HIRMAb-PON1 fusion protein, Gln-192 allozyme (antibody, human IgG1, kappa)
heavy: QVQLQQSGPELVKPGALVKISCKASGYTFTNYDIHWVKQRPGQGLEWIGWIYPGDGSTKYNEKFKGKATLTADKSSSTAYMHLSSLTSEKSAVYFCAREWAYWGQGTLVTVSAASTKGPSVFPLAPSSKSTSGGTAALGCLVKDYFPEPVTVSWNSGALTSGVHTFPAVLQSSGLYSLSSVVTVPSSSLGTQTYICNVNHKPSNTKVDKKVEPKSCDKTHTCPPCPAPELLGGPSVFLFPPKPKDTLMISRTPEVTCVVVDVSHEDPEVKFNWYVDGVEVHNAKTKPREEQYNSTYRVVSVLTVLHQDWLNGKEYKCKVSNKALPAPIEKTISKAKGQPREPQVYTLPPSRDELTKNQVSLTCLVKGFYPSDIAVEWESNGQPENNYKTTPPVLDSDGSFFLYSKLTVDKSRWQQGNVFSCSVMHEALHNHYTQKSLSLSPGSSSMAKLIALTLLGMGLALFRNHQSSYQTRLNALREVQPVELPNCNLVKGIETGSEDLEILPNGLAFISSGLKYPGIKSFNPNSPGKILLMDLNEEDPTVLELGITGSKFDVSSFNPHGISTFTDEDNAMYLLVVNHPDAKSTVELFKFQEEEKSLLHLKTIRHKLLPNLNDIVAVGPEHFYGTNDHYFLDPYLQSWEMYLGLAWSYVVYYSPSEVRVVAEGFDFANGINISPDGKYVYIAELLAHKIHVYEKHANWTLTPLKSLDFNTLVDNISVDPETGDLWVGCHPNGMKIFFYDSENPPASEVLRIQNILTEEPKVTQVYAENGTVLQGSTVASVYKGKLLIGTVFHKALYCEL
light: DIQMTQSPSSLSASLGERVSLTCRASQDIGGNLYWLQQGPDGTIKRLIYATSSLDSGVPKRFSGSRSGSDYSLTISSLESEDFVDYYCLQYSSSPWTFGGGTKMEIKRTVAAPSVFIFPPSDEQLKSGTASVVCLLNNFYPREAKVQWKVDNALQSGNSQESVTEQDSKDSTYSLSSTLTLSKADYEKHKVYACEVTHQGLSSPVTKSFNRGEC
Work on B3 yielded an EC50 [4] of 0.96 nM.
